Experiment: soluble on expression in E. coli; label from the status in PepcDB or PDB records

Sequence | soluble on expression in E. coli
MMQPLQLSAGGFAVVLGTNEIASAVAVHLHREGCCVVMSHDPFPPVIRRKMAFHDALYGDEVTVEGVRGERVDHATQIFKALRRSDNVLVSWLALPDLLPIGAVDVLIDARMQKHRVTPDLRGLARISVGLGPGFSTAVNCDVAIETRPGRSGLIVGAGWTDAADGVASPLGGVGAERFEYSQASGRWRTAVEIGSRVFSGFTIGHLGGVPVRAPCDGILRGVVRDGQDVPQGVKLLEVDSRGRHAQWTGIDDRGRGIAKAVLRAVQPQAEIRTSYAAQPIAVFLEHHHHHH | not soluble
MSLQIAANKAVSIDYTLTNDAGDVIDSSAGGAPLVYLHGAGNIIVGLEKALEGKNVGDELSVAIEPEDAYGEYSAELVATLTREMFEGVDELEVGMQFHASAPDGGMQIVTIRDIDGDDVTVDGNHPLAGQRLNFKVKVVDVREANAEEIAHGHIHGEGGHHHEGGSHHHHHH | soluble
MSSPRHVFYISDRTGLTAENIGEALLNQFGNLSFKRHTHPFVDTPEKARAVVEKVNRSRQENGQRPIAFVSVVDDEIRRIIKGADAFQINFFETFLGLLEKELNTEATASEQGHHSIGNTKRYDARMEAVNFSLNHDDGVSDKNLQEADVILMGVSRSGKTPTCLYLALQYGIRAANYPLIPDDLESADLPRMVKPYRDKLFGLTIQPERLQAIRQERRPNSTYAKIDTCRSEVADAQSMFRRHGIPFANTTDKSVEELAVHILQACKLKRRFLEHHHHHH | soluble
MYDWFSEMRKKDPVYYDGNIWQVFSYRYTKEVLNNFSKFSSDLTGYHERLEDLRNGKIRFDIPTRYTMLTSDPPLHDELRSMSADIFSPQKLQTLETFIRETTRSLLDSIDPREDDIVKKLAVPLPIIVISKILGLPIEDKEKFKEWSDLVAFRLGKPGEIFELGKKYLELIGYVKDHLNSGTEVVSRVVNSNLSDIEKLGYIILLLIAGNETTTNLISNSVIDFTRFNLWQRIREENLYLKAIEEALRYSPPVMRTVRKTKERVKLGDQTIEEGEYVRVWIASANRDEEVFHDGEKFIPDRNPNPHLSFGSGIHLCLGAPLARLEARIAIEEFSKRFRHIEILDTEKVPNEVLNGYKRLVVRLKSNE | soluble
MGSDKIHHHHHHMYTFTNQFISNDKNVEFLKAAMMGPNAMRLAEELSSHLNIDETMRILDLGCGCGLSTLLLTKKYGASVFAADLWISPTENYERFQSLGIADKAVPISVDATKGLPFAKGYFDLLFTVDAYHYFGDTAAMLPSLIPFVKKGGYIAVAIPGLNYEFEDKVPDEMQPFWNSEMARTLHSLDWWKDLWKKAEGIEMVDSREMACCREAWQEWLTAYHPIVAEDIKMMAAEDGKYFNLVQLIAKVL | not soluble
GMRNELPPENAYRILESGPIVLVSTRGADGRANLMTMGFHMMMQHEPPLVGAIIGPWDYSHQALSETGECVLAVPTVDLAETVVDIGNCSGDALDKFGHFGLTPVPAQTVDAPLVRQCWANLECRVVDDGWARRYNLWVLEVQRIWIDTARKETRLIHHQGDGRFSVDGDTLDLGERMTKWRHLMG | soluble
YCTLDDLILSFGQDEIYRLIATDQEAEKALDDAQAEIDMYLSDRYALPVKSVPKSLNRIACDIAHYYLYNSVDEDSTVYLRYKHRIKQLSDVAAGKLSLGLYDKSDDATTDNQVVFIKSSKKVFAR | not soluble
SMPSQQRVKRWGFSFDEILKDQVGRDQFLRFLESEFSSENLRFWLAVQDLKKQPLQDVAKRVEEIWQEFLAPGAPSAINLDSHSYEITSQNVKDGGRYTFEDAQEHIYKLMKSDSYARFLRSNAYQDLLLAKKKGKSLAGKRLTGLMQ | soluble
ATKQAIEKDPWLSPEQKKAQKEKAKARLDEGLKALKAADSLEILKVTEEAFVDKEKNPDSIPNQHKAGTADQARKQALDSL | not soluble
MGSDKIHHHHHHMAEYFQDDLGFRPFNAQVNHCTRDLGFRLYEPSDVLFASFSDESGMRTYVRTLSFILSKAVADILPGSKLFIEHSLSNGYYCQIKNAHMITPGEIVRIKERMESLIVADIPFRAHCERTEEVAAMFRSMGYEDKADLLETKGMPYSRYYDLDGYPDYYYGSLAPSTGYIGLFGLEPYLDGVLLRIPRRDKPEELAPFVPQPMMRQVFADHDRLLDILQVTHVGSLNKAVDRNDISTMVQVSEAMQEKQIAAIADDIAHKYKEGVRVVLISGPSSSGKTTFCKRLQTQLLTNYIRPYGLSLDDYFINREDSPRDESGDYDFESLYALDLPLFNKDLKQMIAGEEVSLPTYDFATGMRVYKGNTIQLKDGDILILEGIHALNPELIPGVPESSTYKIYVSALTAIGLDAHNRIPSTDNRLIRRLVRDYRYRNYSGLGTLRRWQSVRRGEEKWVFPFQENAHVMFNSAMLYELAVLRAYAEPILQAIPRNEPEYAEARRLLRFLSSFRMIPARLLPNNSLMREFLGGSTFHY | not soluble
MTAASIDRELVPWSDPEFRNNPYPWYRRLQQDHPVHKLEDGTYLVSRYADVSHFAKLPIMSVEPGWADAGPWAVASDTALGSDPPHHTVLRRQTNKWFTPKLVDGWVRTTRELVGDLLDGVEAGQVIEARRDLAVVPTHVTMARVLQLPEDDADAVMEAMFEAMLMQSAEPADGDVDRAAVAFGYLSARVAEMLEDKRVNPGDGLADSLLDAARAGEITESEAIATILVFYAVGHMAIGYLIASGIELFARRPEVFTAFRNDESARAAIINEMVRMDPPQLSFLRFPTEDVEIGGVLIEAGSPIRFMIGAANRDPEVFDDPDVFDHTRPPAASRNLSFGLGPHSCAGQIISRAEATTVFAVLAERYERIELAEEPTVAHNDFARRYRKLPIVLS | soluble
MDNNIDFIVTWVNGGDPDWLKKKNKYLPVNESNENMNSESRYRDFDIFKFWFRAVEKFAPWVHKIYLITDNQVPDWLDTRNSKLTVIDHRDIMDADWLPTFNSNAIELNAYKIKNLSEKFVLFNDDTILNSYVDKVDFFDENYPKDIYVESPIMATKGSVDHIMVNNVEIINEFFEKKNFYKKNLTKVFNPKIGIKLLRTLALLPSSKFAGFWNSHLPISYNKTTFETVWSNCEGKLVATSKNKFRTAYDVSHWLMRYWQLASGNYHLQNNIGKVYDLSSQNIDEVVTQLQRSHSKIICLNDNDELDDYEGVKGKLVTTLNEKFSEKSKFELLEHHHHHH | soluble
MRELQTLLISCLKQERISGSMFRVLGKVVNHVVCEMFKHQDIAWDGLRDYIVSQSKTKFQRAVYIFQCLTTPLEDDEFVIHVMENLLPEIRIRLNPPRDLLVDNSCWVLAFTGAFCATIHLREFPSQAESVKEIANKMIDSVRELVEIGIEVGLVRRAFRDLENIVKNLNKWNGTGS | soluble
MKFLELNKKRHATKHFTDKLVDPKDVRTAIEIATLAPSAHNSQPWKFVVVREKNAELAKLAYGSNFEQVSSAPVTIALFTDTDLAKRARKIARVGGANNFSEEQLQYFMKNLPAEFARYSEQQVSDYLALNAGLVAMNLVLALTDQGIGSNIILGFDKSKVNEVLEIEDRFRPELLITVGYTDEKLEPSYRLPVDEIIEKR | soluble
MYTLNWQPPYDWSWMLGFLAARAVSSVETVADSYYARSLAVGEYRGVVTAIPDIARHTLHINLSAGLEPVAAECLAKMSRLFDLQCNPQIVNGALGRLGAARPGLRLPGCVDAFEQGVRAILGQLVSVAMAAKLTARVAQLYGERLDDFPEYICFPTPQRLAAADPQALKALGMPLKRAEALIHLANAALEGTLPMTIPGDVEQAMKTLQTFPGIGRWTANYFALRGWQAKDVFLPDDYLIKQRFPGMTPAQIRRYAERWKPWRSYALLHIWYTEGWQPDEA | soluble
MEVTDVRLRRVNTDGRMRAIASITLDHEFVVHDIRVIDGNNGLFVAMPSKRTPDGEFRDITHPINSSTRGKIQDAVLNEYHRLGDTEALEFEEAGAS | soluble
MSDYAESYVSDCEVDPEELKNQSLFDKPRGVPRWLGKPHNSVKERLHNSVKDRTFIQKTVSSSEPLSRNAMDRIEASLTDNLNLDVVYSLNKKNRWQDAKTTFLLAGAPENVNAEVVEKNGLAQFGFIYPEKSTFAVHSRVLNKENKQGEFEIRSAITSSARGQDYSNFLPNTREFSKKANAKVMTLRSEEVDEDSKRQPTVSYNIYKTHRSQDVVGKEMFKAKVVSKSRRHRQNKKVDMENYDDLDEEFEDDEDEVVDSHRPTGVFDLAAFKVRTQSKQAHPKNRKDSELSYDMVDYDELETGSEYSQQFNVQEYLNQEGYTFIQADVTFVKLTEPFEDQINQLRLEGDLRVKDLQKNQYLIDISKRCQPNGTTQDGETTAVIVLTHLKHKTYNMIFNSTIGADPIRRNGENLRKIVSSAPTVLEVITKISGDVAEDKQLISRIKTSEKFYGRPSTSVDWNDLSLQRATCPNQYDNATWANSEELSVVGGKLEWDDLVAMVKKENNLVTCYSSDDFCGFCNRKKKSFELFLIKSSSETKIKCTECLRNEFYREFIARRLPIDLQTETADEMEYLPIFIPLTLLNLYIRTVAETIYKDLGATGDFEKCPSCKSTIFFEEPGNENKTQNRSCPCGYSWCRDCKGVPHWPMNCENYAEWEKKWHLRYAMMNAQGTGTVTLLQFTCHCKTVYYCLLPTKRVNCPGCRESVNLETMNTMYRQFYYSYPPRYRKWEKQYHEENKDTDRHPYQPLAKVCWEIDKIPAIKASVIETCGAARDVRFDLKFRNRVIKQEQVLIKKSILTSEVLENILGTIPYLVENVTAWMHMSNHQDKNLKSILESMIADRKDLVYYLESENEIEIEKCVKILRAKIDSVVSIVEKNMKNC | not soluble
MRGSHHHHHHPEYDYIRDGNAIYERSFAIIRAEADLSRFSEEEADLAVRMVHACGSVEATRQFVFSPDFVSSARAALKAGAPILCDAEMVAHGVTRARLPAGNEVICTLRDPRTPALAAEIGNTRSAAALKLWSERLAGSVVAIGNAPTALFFLLEMLRDGAPKPAAILGMPVGFVGAAESKDALAENSYGVPFAIVRGRLGGSAMTAAALNSLARPGL | soluble
MANELTWHDVLAEEKQQPYFLNTLQTVASERQSGVTIYPPQKDVFNAFRFTELGDVKVVILGQDPYHGPGQAHGLAFSVRPGIAIPPSLLNMYKELENTIPGFTRPNHGYLESWARQGVLLLNTVLTVRAGQAHSHASLGWETFTDKVISLINQHREGVVFLLWGSHAQKKGAIIDKQRHHVLKAPQPSPLSAHRGFFGCNHFVLANQWLEQHGETPIDWMPVLPAESE | soluble
MSEIKRLEINYKTDELFENFRAFGNKDLYMVNELNGQMIDASSDSPFYGIFVGDQLGARMALLKKGDVEEIYFPDFEDYILLWKLEVLPKYQNRGYASELIDFAKSFNMPIKAIGRNDSKDFFLHHGFTDVEAKNIEGHDVLLWKPIRLEHHHHHH | not soluble
MNTLEKIQKNLENFSKSERKVAEVIMASPQTAIHSSIATLAKMADVSEPTVNRFCRRLDTKGFPDFKLHLAQSLANGTPYVNRNVEEDDGPDAYTHKIFESTMACLDVAKNSLDPMQVNRAVDLLTQAKRISFFGLGASSSVARDAQNKFIRFNIPITCFEDIVMQRMSCINCSDNDVIVLISHTGRTKSQVEIANLARENGATVIAITAKDSPLEKASSLAITLDIPEDTDVYMPMASRVVQMTVIDVLATGFTLRRGTGFRENLKRVKDALKDSRYDKLSQY | not soluble
MSLSRFYHNLKFRSIPTTCATAQMCADRDEMQDSLICIPHFAAPEHYLFAGIDGHSGKYVSYKFSIRFPEIFYEMLSRDSGALNIIDALYQSFDTIQNEFANDPNVTDGAVATVIFMTPTKIYTAQCGDCRAVYITSSGVVQLAPEHKTSDRIEQMRIRSQGGFVSENLRVCGLLVARSVGDVKNKPIITHVPDITCFDRRDDEEYLVVATDGVWDEISNLKIHDILHSNRRVYRTSELSGLVKDIACVSCISGQHPDNIGIVLCRFEGHHHHHH | soluble

From the DeepSol protein solubility set
